Test results taken from publication PMC7049099 (Cell reports, 2020).

Biological target: vesicular stomatitis virus (VSV) large (L) protein (vesicular stomatitis virus (VSV) …, UniProt P03523 1-2109)
Assay: cryo-EM structure

Sequence of vesicular stomatitis virus (VSV) large (L) protein (P03523 whole entry): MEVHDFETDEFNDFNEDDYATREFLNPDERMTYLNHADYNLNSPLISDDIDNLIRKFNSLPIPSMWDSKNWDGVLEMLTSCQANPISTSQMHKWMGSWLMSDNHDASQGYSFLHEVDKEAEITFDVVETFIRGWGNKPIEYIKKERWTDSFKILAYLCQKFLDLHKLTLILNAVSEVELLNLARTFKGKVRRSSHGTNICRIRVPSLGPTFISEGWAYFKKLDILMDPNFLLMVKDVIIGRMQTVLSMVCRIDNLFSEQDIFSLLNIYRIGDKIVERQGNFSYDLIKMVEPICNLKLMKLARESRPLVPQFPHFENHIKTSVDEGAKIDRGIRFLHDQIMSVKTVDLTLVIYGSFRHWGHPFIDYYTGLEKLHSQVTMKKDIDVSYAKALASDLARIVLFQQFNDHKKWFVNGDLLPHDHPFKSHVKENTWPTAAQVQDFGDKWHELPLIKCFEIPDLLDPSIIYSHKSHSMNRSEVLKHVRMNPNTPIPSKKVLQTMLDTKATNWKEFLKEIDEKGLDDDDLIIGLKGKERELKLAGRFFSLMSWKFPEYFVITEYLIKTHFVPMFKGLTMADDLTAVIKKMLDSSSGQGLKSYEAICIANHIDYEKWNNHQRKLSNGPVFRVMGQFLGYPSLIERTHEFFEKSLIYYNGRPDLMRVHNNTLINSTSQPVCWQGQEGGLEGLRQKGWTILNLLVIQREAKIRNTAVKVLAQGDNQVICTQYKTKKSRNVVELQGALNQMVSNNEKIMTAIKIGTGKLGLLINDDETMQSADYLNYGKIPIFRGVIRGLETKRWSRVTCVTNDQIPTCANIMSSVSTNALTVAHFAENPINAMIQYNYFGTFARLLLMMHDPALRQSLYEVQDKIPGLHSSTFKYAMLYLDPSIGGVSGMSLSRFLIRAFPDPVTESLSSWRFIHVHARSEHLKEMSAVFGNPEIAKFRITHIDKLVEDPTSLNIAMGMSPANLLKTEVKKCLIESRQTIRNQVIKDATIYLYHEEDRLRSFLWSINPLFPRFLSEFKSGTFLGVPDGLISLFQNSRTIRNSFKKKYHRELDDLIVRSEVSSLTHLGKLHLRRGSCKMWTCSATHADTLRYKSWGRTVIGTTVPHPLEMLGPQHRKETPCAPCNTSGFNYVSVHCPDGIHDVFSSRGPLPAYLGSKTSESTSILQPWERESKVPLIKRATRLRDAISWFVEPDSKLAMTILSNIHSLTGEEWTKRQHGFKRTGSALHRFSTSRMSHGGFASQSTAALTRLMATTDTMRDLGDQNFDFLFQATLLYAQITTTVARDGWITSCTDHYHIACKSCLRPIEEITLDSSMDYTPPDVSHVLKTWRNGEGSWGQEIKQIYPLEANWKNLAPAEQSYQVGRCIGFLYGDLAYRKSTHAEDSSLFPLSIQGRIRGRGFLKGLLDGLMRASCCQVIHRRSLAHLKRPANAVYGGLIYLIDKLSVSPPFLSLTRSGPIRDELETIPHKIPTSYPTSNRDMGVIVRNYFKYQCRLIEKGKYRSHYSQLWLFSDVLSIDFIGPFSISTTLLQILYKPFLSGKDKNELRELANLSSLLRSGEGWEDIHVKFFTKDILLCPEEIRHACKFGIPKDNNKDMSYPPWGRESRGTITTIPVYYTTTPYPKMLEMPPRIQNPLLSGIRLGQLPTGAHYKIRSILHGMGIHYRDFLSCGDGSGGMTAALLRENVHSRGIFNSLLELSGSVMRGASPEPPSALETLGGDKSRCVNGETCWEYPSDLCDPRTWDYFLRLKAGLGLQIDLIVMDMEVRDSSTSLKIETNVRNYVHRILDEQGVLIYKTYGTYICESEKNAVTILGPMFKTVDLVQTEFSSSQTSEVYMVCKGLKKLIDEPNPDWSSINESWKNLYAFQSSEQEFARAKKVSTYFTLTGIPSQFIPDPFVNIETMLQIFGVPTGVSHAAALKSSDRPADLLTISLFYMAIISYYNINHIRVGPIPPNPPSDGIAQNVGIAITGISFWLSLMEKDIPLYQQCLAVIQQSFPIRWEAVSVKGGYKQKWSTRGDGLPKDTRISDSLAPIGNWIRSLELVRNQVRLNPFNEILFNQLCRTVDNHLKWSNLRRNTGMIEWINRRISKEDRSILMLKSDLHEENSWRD

B1: VSV phosphoprotein (P) fragment, residues 35-106 (domain or fragment)
chain: SNYELFQEDGVEEHTKPSYFQAADDSDTESEPEIEDNQGLYAQDPEAEQVEGFIQGPLDDYADEEVDVVFTS
- binding result: binds
